{
  "source": "the nanobody polyreactivity screen of Harvey et al. (2022)",
  "data": [
    {"assay": "yeast display, Sf9 membrane polyspecificity reagent, FACS + sequencing; frameworks hold sequencing errors", "in_short": "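In a synthetic yeast display library (Saccharomyces cerevisiae BJ5465), nanobody expression was induced with galactose for 36–48 hours. FACS gates were set low and high (top ~1%) using anti-HA fluorescence for expression and streptavidin fluorescence for binding of the Sf9 membrane reagent. Each polyreactivity label is drawn from the gate of origin.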", "values": [
      {"sequence": "QVQLVESGGGLVQAGGSLRLSCAASRSTITYNAMGWYRQAPGKERELVAAISFSGGRTYYADSVKGRFTISRDNAKNIVYLHMNRLKPEDTAVYYCAKRYGASFYYWGQGTQVTVSS", "polyreactivity (PSR sort gate)": "high polyreactivity"},
      {"sequence": "QVQLVESGGGLVQAGGSLRLSCAASGITLFYYAMGWYRQAPGKERELVAAISWSGGSTYYADSVKGRFTISRDNAKNTDDLQMNSLKPEDTAVYYCNRVSRAPFDYWGQATQVTVSS", "polyreactivity (PSR sort gate)": "high polyreactivity"},
      {"sequence": "QVQLVESGGGLVQAGGSLRLSCAASGRIFGNYAMGWYRQAPGKERELVAAITSGARTYYADSVKGRFTISRDNAKNTVYLQMNSLKPEDTAVYYCAAYHKSYSNRYDYWGQGTHVTVSS", "polyreactivity (PSR sort gate)": "high polyreactivity"},
      {"sequence": "QVQLVESGGGLVQAGGSLRLSCAASGRTFITYAMGWYRQAPGKERELVAAISWNGGTTYYADSVKGRFTISRDNAKNTVYLQMNSLKPEDTAVYYCAAYRWYSAARMGYWGQGTQVTVSS", "polyreactivity (PSR sort gate)": "high polyreactivity"},
      {"sequence": "QVHLVESGAGLDQAGGSLSLSCAASGRNFSFNAMGSYRQAPGKVRELVASIRSGGSTNYADSVKGRFTISSDNAKNTVYLQMNSLKPEDTAVYYCAKRSTYWGWSSYGMDHWGQGTQVTVSS", "polyreactivity (PSR sort gate)": "high polyreactivity"},
      {"sequence": "QVQLVESGGGLVQAGGSLRLSCAASGRIFYINALGWYRQAPGKERELVASITGSGDSTYYADSVKGRFTISRDNAKNTVELQMNSLKPEDTAVYYCAARTYYYYGPRYYYWGQGTQVTVSS", "polyreactivity (PSR sort gate)": "low polyreactivity"},
      {"sequence": "QVQLVESGGGLGQAGGSLRLSCAASGFTFGGNGMGWYRPAPGKERELVASISWGGGSTYYADSVKGRFRISRDKAKNTVYLQMNSLKREDTAVYDCNADRYYWSSRPTSWFNYWGQGTQVTVSS", "polyreactivity (PSR sort gate)": "high polyreactivity"},
      {"sequence": "QVQLVESGGGLVQAGVSLRLSCAASGSIFSKYVMGWYRQAPGKERELVAAISWSGTRTYYADSVKGRFTISRDYAKNSVYLQMNSLKPEDTAVYYCAKYIFTTGLGYWGQGTQVTVSS", "polyreactivity (PSR sort gate)": "high polyreactivity"},
      {"sequence": "QVQLVESGGGLVQAGGSLRLSCDASGSIFGWYAMGWYRQAPGKERELVAAITFSSVSTYYADSVKGRFTISRDNAKNTVYLLMNSLKPEDTAVYYCAAVVYYTFDYWGQGTQVTVSS", "polyreactivity (PSR sort gate)": "low polyreactivity"},
      {"sequence": "QVQLVESGGGLVQAGGSLRLSCAASGFAFSYYAMGWYIPAPGKEREFVASIDWSGGSTYYADSVKGRFTISRDNAKNTVYLQMNSLKPEDTAVYYCAAELDYFPGYDYWGQGTQVTVSS", "polyreactivity (PSR sort gate)": "low polyreactivity"},
      {"sequence": "QVQLVESGGGLVQAGGSLRLSCAASGRTFFKNALGWYRQAPGKERELVASISSRSGTTYYADSVKGRFTISRDNAKNTVYLQMNSLKPEDTAVYYCAASRNRYSYGYWGQGTQVTVSS", "polyreactivity (PSR sort gate)": "high polyreactivity"},
      {"sequence": "QVQLVESGGGLVQAGGSLRLSCAASGFTFPYYAMGWYRPAPGKDRELVARISSGGSTHYADSVKGRFTISRDNAKNTVYVQMNSLKPEDTADYYCAREPWWGYHGEYDYWGQGTEVTVSS", "polyreactivity (PSR sort gate)": "high polyreactivity"},
      {"sequence": "QVQLVESGGGLVQAGGSLRLSCAASGFTFYGYAMGWYRQAPGKERELVASINRSGGTTYYADSVKGRFTISRDNAKNTVYLQMNSLKPEDTAVYYCAASYVYRFTKYYYWGQGTQVTVSS", "polyreactivity (PSR sort gate)": "high polyreactivity"},
      {"sequence": "QVQLEESVGGLVQAGGSLRLICAASGSIFSSYAMGWYRQAPGKERELVATISKRGGITSYADSVKGRFTISRDNAKNTVYLQMNSLKPEDTAVYYCAADSWFSYRGPLYYWGQGTQVTVSS", "polyreactivity (PSR sort gate)": "high polyreactivity"},
      {"sequence": "QVQLEESGGGLVQAGGSLRLSCAASGSIFGAYTMGWYRQAPGKERELVAAISIGGSKNYADSVKGRFTISRDNAKNTVYLQMNSLKPEDTAVYYCNAEPDLEDWWWAIGLYDYWGQGTQVTVSS", "polyreactivity (PSR sort gate)": "high polyreactivity"},
      {"sequence": "QVQLVESGGGLVQAGGSLRLSCAASGRTYVNTMGWYRQAPGKERELVAAISWSGGRTRYADSVKGRFTISRDNAKNTVYLQMNSLKPEDTAVYYCAKRTYSRKFRGAYNYWGQGTQVTVSS", "polyreactivity (PSR sort gate)": "high polyreactivity"},
      {"sequence": "QFQLVESVGGLVQAGGSLRLSCAASGRTFVDYDMGCYRPAPGKERELVAAIRRGGSTTYEDSVKGRFTISRDNAKNTVYLQMNSLKPEDTAVYYCATDNTYGSDYWGQGTQVTVSW", "polyreactivity (PSR sort gate)": "high polyreactivity"},
      {"sequence": "QVQLVESGGGLVQAGGSLRLSCAASGRIFPYYAMGWYRQAPGKERELVATIRGRVGTTYYADSVKGRFTISRDNAKNSVYLEMNSLKPEDTAVYYCNTDNYSPYRYVGLYDYWGQGTQVTVSS", "polyreactivity (PSR sort gate)": "high polyreactivity"},
      {"sequence": "QVQLVESGGGLVQAGGSLRLSCAASGRIFVKNAMGWYRQAPGKERELVAAISRGGSTYYADSEKGRFTISRDNAKITVYLQMNSLKPEDTAVYNCAPGGQGGDFGDDYWGQGTQVTVSS", "polyreactivity (PSR sort gate)": "high polyreactivity"},
      {"sequence": "QVQLVESGGGLVQAGGSLRLTCAASGNTFFFNTMGWYRQAPGKERELVAVISSSGGTYYADSVKGRFTISRDNAKNTVYLQMNSLKQEDTAVYYCNADWHTHGYPTGKTGFKYYYWGQGTQVTVSS", "polyreactivity (PSR sort gate)": "low polyreactivity"},
      {"sequence": "QFQLVESGGGLVQAGGSLRLSCAASGRIFGIYAMGWDRQAPGKESELVATITDSDDSTYYADSVKGRFTISRDNAKNTVYLQMNSLKPEDTAVYYCATAFSYGGGAYDYWGQGTQVTVSS", "polyreactivity (PSR sort gate)": "low polyreactivity"},
      {"sequence": "QVQLVETGGGLVQAGGSLRLSCAASGSIFVRKAMGWYRQAPGKERELVATISYRGASTYYADSVKGRFTISRDNAKNTVYLQLNCLKPEDTAVYYCNAPRFVGLNVYGYDYWGQGTQVTLSS", "polyreactivity (PSR sort gate)": "high polyreactivity"},
      {"sequence": "QVHLVESGGGLVQAGGSLRLSCAASGRIFGRNAMGWYRQAPGQERELVAAITSGSSTYYADSVKGRFTISRDNAKNTVYLQMNSLKPEDTAVYYCAARTIGYHYTGGYGYWGQGTQVTVSS", "polyreactivity (PSR sort gate)": "high polyreactivity"},
      {"sequence": "QVQLVESGGGLVQAGGSLRLICAASGIIFRWYTMGWYRQAPGKERELVAAISTSTGSTYYADSVKGRFTISRDNAKNTVYLQMNSLKPEDTAVYYCAADYAYWNYESYYWGQGTQVTVSS", "polyreactivity (PSR sort gate)": "high polyreactivity"},
      {"sequence": "QVQLVESGGGLVQAGGSLRLSCAASGFTFSNNVMGWYRQAPGKERELVADITDSGGDTYYADSVKGRFTISRDNAKNTVYLQMNSLKPEDTAVYYCAARPQHFDLDLAYSGFDYWGQGTQVTVSS", "polyreactivity (PSR sort gate)": "high polyreactivity"},
      {"sequence": "QVQLVESGGGLVQAGGSLRLSCAASGRTFKAYAMGWYRQAPGKERELVAAITYSGGSTYYADSVKGRFTISRDNAKNTVYLQMNSLKPEDTAVYYCAASAQSRSRVKLYYWGQGTQVTVSS", "polyreactivity (PSR sort gate)": "high polyreactivity"},
      {"sequence": "QVHLVESGGGLVQAGGSLRLSCAASGFIFRYYAMGWYRQAPGKEREMVAAISWSGGSTYYADSVKGRFTISRDNAKNTVYLQMNSLKPEDTAVYYCAADRYAILFYAEDYWGQGTQVTVSS", "polyreactivity (PSR sort gate)": "low polyreactivity"},
      {"sequence": "QVQLVESGGGLVQAGGSLRLSCAASGRTFDPNAMGWYRPAPGKERELVAAISSSAGSTYYADSVKGRFTISRDNAKNTVYLQMNSLNPEDPALYFCAAGSGTFVTRYRYGYWGQGTQVTVSS", "polyreactivity (PSR sort gate)": "high polyreactivity"},
      {"sequence": "QVPLVESGGGLVEAGGSLRLSCDASGGIFRGYAKGWYRQAPGKERDLVAAISRGGGSTYYADSVKGRFTISRDNAKNTVYLQLNSLKPEDTAVYYCAAIYTRVYDPVTEFYYWGQGTQVTVSS", "polyreactivity (PSR sort gate)": "high polyreactivity"},
      {"sequence": "QVQLVESGGGLVQAGGRLRLSCATSGYIFYDYDMGWYRQAPGKERELVAAIRRSTGTTYYADSVKGRFTISRDNEKNTVYLLMISLKPESTAVYYCAALFRPRVHRYDYWGQGTQVTVSS", "polyreactivity (PSR sort gate)": "low polyreactivity"},
      {"sequence": "QVQLVESGGGLVQAGGSLRLSCAASGRTFKWYAMGLYRQAPGKEREFVAGISRGAGRTYYADSVKGRFTISRDNAKNTVYLQMNSLKPEDTAVYYCAAVPSYHSTSPFYYWGQGTQVTVSS", "polyreactivity (PSR sort gate)": "high polyreactivity"},
      {"sequence": "QVQLVESGVGLVQAGGSLRLSCAASGRIFYYNAMGWYRQAPGKVRELVASISWDASSTYYADSVKGRFTISRDNAKNTVYLQMNSLKPEDTAVYYCNKKHLYRQYDYWGQGTQVTVTS", "polyreactivity (PSR sort gate)": "low polyreactivity"},
      {"sequence": "QVQHVESRGGLLQAGGSLRLSCAASGRTLSFYGMGWYRQPPGKERELVAAISSSGSRTYYADSVKGRFTISRDNAKNTVYLQMNSLKPEHTAVYYCNALRIYHHYEYDYWGQGTQVTVSS", "polyreactivity (PSR sort gate)": "high polyreactivity"},
      {"sequence": "QVQLVESGGGLVHSGRSLRLSCAASGSISCHYAMGWYRTAHGKERDLLAAIDSSGGIKYYADSVKGRFTISRDNSKNTVYLQMNSLKPEDTAVYYCAAVFLLFGFEWSYDYWGQGTQVTVSS", "polyreactivity (PSR sort gate)": "low polyreactivity"},
      {"sequence": "QVQLVESGGGLVQAGGSLRLSCAASGLTFIIYAMGWYRQAPGKERELVARISSGGRTNYADSVKGRFTISRDYAKNTVYIQMNSLTPEDTAVYYCAAAFVYPYRHYYRYDYWGQATQVTVSS", "polyreactivity (PSR sort gate)": "high polyreactivity"},
      {"sequence": "QVQLVESGGGLGHAGGSLRLSCAASGRIYGRNAMGWNRKAQGKERELVAAINSGVSTYYADSVKGRFTISRDNAKNTFYLQMNSLKPEDTAVYYCAKAPQRRYYDFDYWGQGTQVTVSS", "polyreactivity (PSR sort gate)": "low polyreactivity"},
      {"sequence": "QVQLVESGGGLVQAGGSLRLSCAASGSTFWLYAMGWYRPAPGKERELVASISSRGGSTYYADSVKGRFTISRDYAKNTVYLQMNSLKPEDTAVYYCAAKDIRYDDDYWGQGTQVTVSS", "polyreactivity (PSR sort gate)": "low polyreactivity"},
      {"sequence": "QVQLVESGGGLVQAGGSLRLSCAASGSIFGYNTMGWYRQAPGKERELVAAISYSGGRTYYADSVKGRFTISRDNAKNTVYVQMNSLKPEDTAVYYCAADFYFRRGTDYDYWGQGTQVTVSS", "polyreactivity (PSR sort gate)": "high polyreactivity"},
      {"sequence": "QVQLVESGAGLVQAGGSLRLSCAASGTIFRDYAMGWYRQAPGKERELVAAISSDGSTYYADSVKGRFTISRDNAKNTVYLEMNSLKPEDTAAYYCNARSYYPWEGFDYWGQGTQVTVSS", "polyreactivity (PSR sort gate)": "low polyreactivity"},
      {"sequence": "QVQLVESGGGLVQAGGSLRLSCAASGSTFNYNAMGWYRQAPGKERELVAAITGTGGDTYYADSVKGRITISRDNAKNTVYLQMNILKPEDTAVYYCDAEEDYWGQGTQVTLSS", "polyreactivity (PSR sort gate)": "low polyreactivity"},
      {"sequence": "QVQLVESGGGLVQAGGSLRLSCAASGRIFSGYAMGCYRQAPGKERELVAAITSRSGSTYYADSVKGRFTISRDNAKKTVYLQMNSLKPEDTAVYYCAAEYVRFYWYTSDYWGQGTQVTVSS", "polyreactivity (PSR sort gate)": "low polyreactivity"}
    ]}
  ]
}
